# Patent US20210220460
# Legend:
# [1] = test system: ComP-His (pilin-like protein ComP of A. baylyi with C-6X His tag)
# [2] = test system: OmpA-His (A1S_1193) expressed in A. baylyi
# [3] = test system: DsbA1-His of N. meningitidis expressed in A. baylyi (pBAV-dsbA1-His, C-6X His)
# [4] = test system: PilAM2, major type IVa pilin of A. nosocomialis strain M2
# [5] = test system: PilA17978-His (pilin of A. baumannii ATCC 17978 with C-terminal hexa-histidine tag)
# [6] = test system: OmpA-His (A1S_1193 with C-terminal 5x His tag), expressed in strain M2 backgrounds
substance,measurement,setting,value
"Pg1LADP1, general O-OTase of A. baylyi ADP1 (ACIAD0103)","ComP-His electrophoretic mobility, western blot",[1],Pg1LADP1 is not required for ComP post-translational modification
same,"OmpA-His electrophoretic mobility, western blot of A. baylyi lysates",[2],displayed an increased electrophoretic mobility in the Δpg1LADP1 background relative to wild-type and Δpg1LComP backgrounds
same,"DsbA1-His electrophoretic mobility, western blot of A. baylyi lysates",[3],displayed an increased electrophoretic mobility in the Δpg1LADP1 background relative to wild-type and Δpg1LComP backgrounds
"Pg1LComP, ComP-specific O-OTase of A. baylyi ADP1 (ACIAD3337)","ComP-His electrophoretic mobility, western blot",[1],pg1LComP (ACIAD3337) is required for ComP modification
same,"glycosylation in E. coli CLM24, western blot with anti-his and anti-glycan antibodies",[1],lower electrophoretic mobility bands that react to the anti-his and anti-glycan antibodies indicate glycosylation of ComP by the C. jejuni LLO
same,"glycosylation in E. coli CLM24 with the S. pneumoniae serotype 14 CPS locus, western blot",[1],Lower electrophoretic mobility bands in panel A that react to both Anti-His and Anti-Glycan antibodies in lane 2 relative to lane 1
same,"heterologous ComP-His electrophoretic mobility, western blot",[1],ComP-His was only modified in A. baylyi ADP1
same,"heterologous PilAM2 electrophoretic mobility, western blot",[4],Pg1LComP was unable to glycosylate the pilins recognized by TfpO
same,"heterologous PilA17978 electrophoretic mobility, western blot",[5],PilA17978 was not glycosylated by Pg1LComP
"Pg1LM2, general O-OTase of A. nosocomialis strain M2 (ORF M215_10475)","OmpA-His electrophoretic mobility, western blot; ESI-TOF-MS/MS",[6],"OmpA-His from the M2Δpg1L::kan and the M2ΔweeH::kan backgrounds migrated at an increased electrophoretic mobility, consistent with the lack of a post-translational modification"
"TfpOM2, type four pilin specific O-oligosaccharyltransferase of A. nosocomialis strain M2 (ORF M215_10480)",MS/MS analysis of PilA from surface shear preparations,[4],PilA from the M2ΔtfpO::kanΔpilT::strep mutant was unmodified
